Data set [1] can be described thus: Plasma exposure after the last dose in DIO mini-pigs. Conditions: combination group, liraglutide […]. Format: in vivo, Göttingen mini-pigs. The method, then: The CCK derivative was dissolved in the following buffer: 8 mM phosphate, 184 mM propylene glycol, 58 mM phenol, pH 7.4 concentrations ranging from 2000-10000 nmol/mL corresponding to dose volumes ranging from 0.00075-0.001 mL/kg. Liraglutide was dissolved in 8 mM phosphate, 184 mM propylenglycol, 58 mM phenol, pH 8.15 (1600 nmol/mL), dose volume was 0.001 mL/kg and this formulation also served as a vehicle for all 3 treatment groups. Animals were dosed subcutaneously once daily with vehicle, CCK derivative, liraglutide, or liraglutide in combination with the CCK derivative (given as two separate injections in each side of the neck). After the last dose blood samples were obtained in EDTA coated tubes at selected time points for up to 480 hours after dosing. Blood was sampled through central-venous catheters implanted under general anaesthesia after 11 weeks of treatment.
The resulting plasma was pipetted into Micronic tubes on dry ice, and kept at −20° C. until analysed for plasma exposure of liraglutide and the CCK derivative. Plasma content of the CCK derivative was measured using LC-MS method II, as described in Example 93. Plasma content of liraglutide was measured using LOCI (Luminescence Oxygen Channeling Immunoasssay). LOCI is generally described for the determination of insulin by Poulsen and Jensen in Journal of Biomolecular Screening 2007, vol. 12, p. 240-247. The donor beads were coated with streptavidin, while acceptor beads were conjugated with a monoclonal antibody recognising a C-terminal epitope of the peptide. Another monoclonal antibody, specific for the N-terminus, was biotinylated. The three reactants were combined with the analyte and formed a two-sited immuno-complex. Illumination of the complex released singlet oxygen atoms from the donor beads, which were channelled into the acceptor beads and triggered chemiluminescence which was measured in an Envision plate reader. The amount of light was proportional to the concentration of the compound.

Data set [2] deals with T1, human cholecystokinin-2 receptor (human, UniProt P32239 1-447).
T1 sequence (looked up): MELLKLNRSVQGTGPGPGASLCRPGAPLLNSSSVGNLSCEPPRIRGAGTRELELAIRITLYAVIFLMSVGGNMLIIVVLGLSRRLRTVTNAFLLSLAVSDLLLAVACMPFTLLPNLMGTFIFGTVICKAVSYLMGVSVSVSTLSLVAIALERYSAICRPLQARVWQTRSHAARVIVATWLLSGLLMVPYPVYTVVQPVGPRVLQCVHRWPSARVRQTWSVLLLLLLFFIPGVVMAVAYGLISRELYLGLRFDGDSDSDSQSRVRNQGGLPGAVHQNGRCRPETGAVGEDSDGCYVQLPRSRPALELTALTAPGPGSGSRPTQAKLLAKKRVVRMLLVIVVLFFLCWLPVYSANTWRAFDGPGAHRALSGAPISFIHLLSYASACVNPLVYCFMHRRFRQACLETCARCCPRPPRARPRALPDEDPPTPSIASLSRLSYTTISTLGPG
Put plainly: cell-based or functional assay.

The target of data set [3] is T2, human cholecystokinin-1 receptor (human, UniProt P32238 1-428).
T2 sequence (looked up): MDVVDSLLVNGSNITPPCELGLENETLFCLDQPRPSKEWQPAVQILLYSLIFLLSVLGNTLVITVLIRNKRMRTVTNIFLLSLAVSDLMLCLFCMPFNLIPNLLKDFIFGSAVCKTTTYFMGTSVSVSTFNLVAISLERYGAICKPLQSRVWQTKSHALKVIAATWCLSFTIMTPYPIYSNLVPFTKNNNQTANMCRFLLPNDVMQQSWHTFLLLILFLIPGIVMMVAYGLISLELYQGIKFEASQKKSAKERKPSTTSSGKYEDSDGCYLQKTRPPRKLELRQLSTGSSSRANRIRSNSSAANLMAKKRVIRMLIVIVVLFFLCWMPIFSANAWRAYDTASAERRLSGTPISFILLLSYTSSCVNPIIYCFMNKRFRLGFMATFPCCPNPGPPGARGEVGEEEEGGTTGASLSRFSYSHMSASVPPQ
The experiment in a line: cell-based or functional assay.

The target in data set [4] is T2, human cholecystokinin-1 receptor. Put plainly: ratio of SPA IC50s, reference CCK-2R.

Turning to `CCCCCCCCCCCCCCCC(=O)N[C@@H](CCC(=O)NCCCC[C@H](NC(=O)[C@H](C)NC(=O)[C@H](C)NC(=O)[C@H](CCC(N)=O)NC(=O)CNC(=O)[C@H](CCC(=O)O)NC(=O)[C@H](CC(C)C)NC(=O)[C@H](Cc1ccc(O)cc1)NC(=O)[C@H](CO)NC(=O)[C@H](CO)NC(=O)[C@@H](NC(=O)[C@H](CC(=O)O)NC(=O)[C@H](CO)NC(=O)[C@@H](NC(=O)[C@H](Cc1ccccc1)NC(=O)[C@@H](NC(=O)CNC(=O)[C@H](CCC(=O)O)NC(=O)[C@H](C)NC(=O)[C@@H](N)Cc1cnc[nH]1)[C@@H](C)O)[C@@H](C)O)C(C)C)C(=O)N[C@@H](CCC(=O)O)C(=O)N[C@@H](Cc1ccccc1)C(=O)N[C@H](C(=O)N[C@@H](C)C(=O)N[C@@H](Cc1c[nH]c2ccccc12)C(=O)N[C@@H](CC(C)C)C(=O)N[C@H](C(=O)N[C@@H](CCCNC(=N)N)C(=O)NCC(=O)N[C@@H](CCCNC(=N)N)C(=O)NCC(=O)O)C(C)C)[C@@H](C)CC)C(=O)O` [Liraglutide, reference compound], in data set [1], the “AUCexposure (0-24 h) after last dose, Liraglutide” value is “Liraglutide: 399872 pM*h”.

The molecule “Asp-sTyr-Nle-Gly-Trp-Nle-DMeAsp-1Nal-amide (peptide)” yielded an EC50 (CCK-2R) in data set [2] of 290 nM. In data set [3], this molecule displayed a CCK-1R selectivity (EC50 (CCK-2R)/EC50 (CCK-1R)) of 2100 and an EC50 (CCK-1R) of 0.14 nM. The CCK-1R binding selectivity (IC50 (CCK-2R)/IC50 (CCK-1R)) in data set [4] amounted to 84000.

Source of the values: patent US20170008928A1, “NOVEL PEPTIDES AND PEPTIDE DERIVATIVES AND USES THEREOF” (Novo Nordisk A/S, priority 2015, published 2017).
